Patent publication US20250188176A1 (INVETX, published 2025)
Changes are numbered by the printed parent chain. “And” between values parts separate entries of the source, which are not always exact repeats. Equal values may be shown once.

Tests used:
[1] = target: T1, Extracellular domain (ECD) of the canine IL-4 receptor alpha-V5 epitope-AviTag-His Tag (canine); experiment: SPR, antibody captured via anti-human Fc
T1 construct: monomeric form isolated by size exclusion; also called canine IL-4RA-V5-Avi-His; canine IL-4RA
T1 chain: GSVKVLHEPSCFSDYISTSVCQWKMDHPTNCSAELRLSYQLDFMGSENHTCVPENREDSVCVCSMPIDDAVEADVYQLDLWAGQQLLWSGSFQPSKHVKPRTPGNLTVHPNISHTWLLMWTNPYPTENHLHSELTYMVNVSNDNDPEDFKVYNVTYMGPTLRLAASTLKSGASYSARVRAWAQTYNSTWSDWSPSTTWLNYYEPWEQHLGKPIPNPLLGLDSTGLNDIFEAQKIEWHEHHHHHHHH

[2] = target: T2, Extracellular domain (ECD) of the canine IL-4 receptor alpha-AviTag-His Tag (canine); experiment: SPR, IgG captured via anti-dog H+L
T2 construct: expressed in CHO cells; also called canine IL-4RA; canine IL4Ra
T2 chain: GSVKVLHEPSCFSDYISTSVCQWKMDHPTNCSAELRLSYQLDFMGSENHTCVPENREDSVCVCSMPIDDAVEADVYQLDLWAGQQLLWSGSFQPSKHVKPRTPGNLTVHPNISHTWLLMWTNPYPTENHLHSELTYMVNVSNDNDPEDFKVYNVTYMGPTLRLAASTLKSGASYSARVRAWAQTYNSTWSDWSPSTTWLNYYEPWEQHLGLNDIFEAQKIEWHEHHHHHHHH

[3] = target: canine IL-4RA (construct not given) (canine); experiment: SPR, combinatorial Fab-SASA clone
[4] = target: T1, Extracellular domain (ECD) of the …; experiment: SPR, Fab-SASA captured on BSA;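 also: biacore T200 SPR, Fab-SASA variants from E. coli conditioned medium captured on BSA-coated CM5 chip, canine IL-4RA injected 120 s then 420 s dissociation, 1:1 model fit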
[5] = target: T2, Extracellular domain (ECD) of the …; experiment: SPR, IgG captured via anti-dog Fc;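 also: biacore T200 SPR with antibodies captured on CM5 chip bearing anti-dog Fc, 120 s association then 600 s dissociation, double-referenced sensorgrams fitted with 1:1 binding model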
[6] = target: canine IL-4RA on canine DH82 cells (canine); experiment: cell-based or functional assay
[7] = target: canine IL-4RA on canine DH82 cells (canine); experiment: cell-based or functional assay; remark: listed apart in the source

B1: Dupilumab (dupilumab VH with human IgG1 constant region, dupilumab kappa light chain) (antibody, V domains shown)
VH: EVQLVESGGGLEQPGGSLRLSCAGSGFTFRDYAMTWVRQAPGKGLEWVSSISGSGGNTYYADSVKGRFTISRDNSKNTLYLQMNSLRAEDTAVYYCAKDRLSITIRPRYYGLDVWGQGTTVTVSS
VL: DIVMTQSPLSLPVTPGEPASISCRSSQSLLYSIGYNYLDWYLQKSGQSPQLLIYLGSNRASGVPDRFSGSGSGTDFTLKISRVEAEDVGFYYCMQALQTPYTFGQGTKLEIKR
notes: human IgG1 instead of the IgG4 of the drug
B1 was tested, and the Kd [1] was 130 nM, the koff [1] was 0.143 s⁻¹ and the kon [1] was 1.09e+06 M⁻¹ s⁻¹.

B2: TB640_275 (antibody, V domains shown)
VH: EVQLVESGGDLVKPGGSLRLSCVASGFTFRDYAMDWVRQAPGKGLQWLSLISGSGGKTYYADAVKGRFTISRDNAKNTLYLQMNSLRAEDTAVYYCAVDRLTKTIRPQYYGLWVWGQGTLVTVSS
VL: DIVMTQTPLSLSVSPGETASISCRSSQSLLYSIGYNYLDWYMQKPGQSPQGLIYLGSKRASGVSDRFSGSGSGADFTLKISRVEADDAGVYYCMQGLQSPLTFGQGTKLEIKR
notes: also called TB640_275-H + TB640_275-L
In the case of B2, the Kd [2] is reported as 1.71 nM, the koff [2] is reported as 0.000487 s⁻¹ and the kon [2] is reported as 287000 M⁻¹ s⁻¹.

B3: TB640_005 Fab-SASA wild type (Fab, V domains shown)
VH: B2 VH with D35T, L48V
VL: B2 VL with M42L, S64P, A74T, K79R, D86N, A88T
notes: secreted from E. coli, tested in conditioned medium; also called WT; not shown: SASA tag then His-tag
For B3, the Kd [3] was 6.07 nM, the koff [3] was 0.00116 s⁻¹ and the kon [3] was 191000 M⁻¹ s⁻¹. For the same binder, the Kd [4] was 13 nM and 13.3 nM and 13.2 nM, the “Ratio WT-kd/clone-kd” value [4] was 1 and the koff [4] was 0.000952 s⁻¹ and 0.000953 s⁻¹. For the same binder, the kon [4] was 73100 M⁻¹ s⁻¹ and 71700 M⁻¹ s⁻¹ and 72400 M⁻¹ s⁻¹.

B4: GFmix_PTH-H + GFmix_THS-L (antibody, V domains shown)
VH: B2 VH with T28P, D35T, V114H
VL: B2 VL with L30T, Q98H, T102G
With B4 the Kd [5] was 0.171 nM, the koff [5] was 7.78e-05 s⁻¹ and the kon [5] was 458000 M⁻¹ s⁻¹. The “IC50: % inhibition of STAT6 phosphorylation (AlphaLISA pSTAT6) in canine DH82 cells stimulated with 20 ng/mL canine IL-4” value [6] was 1.03 nM and the “IC50: % inhibition of STAT6 phosphorylation (AlphaLISA pSTAT6) in canine DH82 cells stimulated with 50 ng/mL canine IL-13” value [7] was 0.21 nM.
